Test in all cases: cell-based or functional assay
Assay [1] addresses gp41 of HIV-1 strain CC 1/85 (HIV-1 strain CC 1/85).
Assay [2] has as its target gp41 of HIV-1 strain DJ258 (HIV-1 strain DJ258).
Assay [3] has as its target gp41 of HIV-1 strain HC4 (HIV-1 strain HC4).
Assay [4] deals with gp41 of HIV-1 strain NL4-3 (HIV-1 strain NL4-3).

In assay [1], T-20 (peptide) gave an Inhibition of HIV-1 infectivity, IC50 (nM), CC 1/85 of 1400 nM. The Inhibition of HIV-1 infectivity, IC50 (nM), DJ258 in assay [2] is 330 nM. For the same substance, the Inhibition of HIV-1 infectivity, IC50 (nM), HC4 in assay [3] was 250 nM. In addition, the Inhibition of HIV-1 infectivity, IC50 (nM), NL4-3 in assay [4] amounted to 700 nM.

For the origin of these results see patent publication US20130177981A1.
